This is an account of results in patent US20240327502A1 (Merck Sharp & Dohme, published 2024).

B1: M4B11 (antibody, V domains shown)
VH: QVQLVQSGTEVQTPGASVKVSCKTSGYIFTGYFMHWVRQAPGQGFEWMGWVNPYSGATTYAQKFQGRVTMTRDTSISTVYMELSRLTSDDTAIYYCAKDTSNSGPDLLEHWGQGTLVIVSS
VL: EIVLTQSPATLSLSPGERATLSCRASQSISNFLVWYQRKPGQAPRLLIFDVSKRATGIPTRFSGSGSGTDFTLTISSLEPEDFAVYYCQQRSNWPPGYTFGQGTKLEIK
notes: IgG
B2: M2E04 (antibody, V domains shown)
VH: QVQLQESGPGLVKPSEILSLTCTVSRFSINSGYYWGWIRQPPGKGLEWIGCISHAGSIYSNPSLESRVTLSLDTSKNQFSLKLTSVIAADTATYYCAASSNWHNALEYWGQGTLVVVSS
VL: QSVLTQPPSASGTPGQTVTISCSGSRSNMGINWVYWYQQLPGTAPKLVIYRNSQRPSGVPDRFSGSQSGTSASLAISGLRSEDEAVYYCAVWDDSLDGRLFGGGTKLTVL
notes: IgG
B3: M2E05 (antibody, V domains shown)
VH: QVQLQESGPGLVKPSEILSLTCTVSRYSINSGYYWGWIRQPPGKGLEWVGCVSHAGVTYYNPSLESRVAVSLDTSKNQFSLKMTSVSAADTAMYYCAASSNWHNALEYWGQGTLVAVSS
VL: B2 VL with T17S, R26S, V48L, A85G, V86H, S95V, L96V, D97S
notes: IgG
B4: M2A05 (antibody, V domains shown)
VH: QITLKESGPTLVKPTQTLTLTCTVSGFSLSANSVGVAWFRQPPGKAPEWLGVIYWDDDKRFSPSLKTRLSITKDASTSQVVLRLTNVSPLDTATYYCVRKHYDLLQWGQGAPVTVSS
VL: EIVLTQSPGTLSLSPGEGATLSCRASRSVNSDYIAWYQHKPGLAPRLLIYAASTRATDIPDRFRADVSGTDFTLTIDRLEPDDFAVYYCQQYGSAVWTFGQGTRVEVK
notes: IgG
B5: M2E11L (antibody, V domains shown)
VH: QVQLVQSGAIMKKPGSSVKVSCKASGGTFTNFAFSWVRQAPGQGLEWMGGIIPFVGPANYAPQFQGRVTITADESTTTAYMELNSLRSEDTAVYYCARVRGFGETAYFYHYYMDVWGKGTTVTVSS
VL: QTVVTQEPSLSVSPGGTVTLTCGLSSGSVSTSHFPSWYQQIPGQPPRTLIYSTITRSSGVPDRFSGSILGNKATLTITGAQADDECDYYCVLYLGGGIPHWVFGGGTKLTVL
B6: M2B09 (antibody, V domains shown)
VH: QVQLVQSGPEVKGPGASVRVSCKANGYTFTSYGINWVRQTPGQGLQWMGWISVHTDDTKDVQQFQDRVTMTTDTSTSTVFMELRNLRFDDTAVYYCARDRTDISGRVRDAFDLWGQGTLVTVSS
VL: SYVLTQPPSVSVAPGQTAKITCGGNNIGSKSVHWYRQKPGQAPVLVVYDDSDRPSGIPERFSGSNSGNTATLTISRVEAGDEADYYCHVWDSYSDPNYVFGSGTKVTVL
notes: IgG
B7: M4F8 (antibody, V domains shown)
VH: QVQLVQSGPEVKKPGASVKISCKASEYTFTNHYLHWVRQAPGQGLEWLGIINPTGGSTYYAGDFQGRVTLTRDASTTTVYMELSSVKSEDTAIYYCARDRGMRYFDYWGQGTLVTVSS
VL: QSVLTQPPSVSGAPGQRVSISCTGISSNIGATYDVHWYQQLPGTAPKLLIYGNNNRPSGVPDRFSGSKSGTSASLAITGLQAEDEAVYYCQSYDSVLSGSVIFGGGTILTVL
notes: IgG
B8: M4B05 (antibody, V domains shown)
VH: QVQLVQSGPEVRKPGASVIISCKASGYSFISYYIHWVRQAPGQGLEWMGIINPSGGSTEYAQKYQGRLTITRDTSTTTVSMTLSSLRSDDTAVYFCAREQAVGAYDIWGQGTMVTVSS
VL: EIVLTQSPGTLSLSPGERATLSCRAGQLINGNYLAWYQKKPGQAPSLLIYDVSRRAAGVPDRFTGSGSGTDFTLTISRLEPDDFAVYYCQHYGRSPSPTFGGGTKVEIK
notes: IgG
B9: M2A03 (antibody, V domains shown)
VH: QLQLQESGPGLVKPSETLSLTCSVSGGSISSSSNSWTWIRQPPGKGLEWIATIFYFGSTYYNPSLRSRVAISVDTSENQFSLKLTSVTAADTAVYFCARHILSSSGVSGWLDPWGQGTLVTVSS
VL: SYELTQPPSVSVSPGQTASITCSGEKLGSKYAHWYQQKPGRSPVLVIYQDTKRPSGIPERFSGSNSGSTATLTISGTQAMDEADYYCQAWDSSSFVFGTGTTVTVL
notes: IgG
B10: M2A02 (antibody, V domains shown)
VH: QVQLVQSGAEVKRPGSSVKVSCKASGDIFSSHAISWVRQTPGQGLKWMGRIIPLVGIRNYAQDLQGRVTISADKSINTVYMELTNLRFDDTAVYYCARDRTDWSGGLDIWGQGTRVTVSS
VL: EIVLTQSPATLSLSPGERATLSCRASQRIGSYLAWYQQKPGQAPRLLIYDASNRATGIPARFSGSGSGTDFTLTISRLEPEDSAIYYCQQRTDWFTFGGGTKVEIK
notes: IgG
B11: M1A11 (antibody, V domains shown)
VH: QLQLQESGPGLVKPSETLSLTCTVSGDSISSSSFYWGWIRQPPGKGLEWIATIYYTGSTEYNPSLKSRISISVDTSMNQFSLRLRSVTAADTAVYYCARQEGSSWSNWFDPWGQGTLVTVSS
VL: DIQMTQSPSSLSASVGDRVTITCRASQSISTYLNWYQQKPGKAPKLLIYVASSLQSGVPSRFSGSGSGTDFTLTISSLQPEDFATYYCQQGYSIPWTFGHGTKVEIK
notes: IgG; also called MIA11
B12: M2A06 (antibody, V domains shown)
VH: QVQLVQSGAEVKKPGASVKISCKASGYSFSNYYIQWVRQAPGQGLEWLGIINPSGGSTDYAQKFEGRVSMTRDTSTNTVYMEMSSLRSEDTASYYCVRSLANGSGSPWGQGTLVIVSS
VL: DIQMTQSPSTLSASVGDRVTITCRASQSISSRLAWYQQKPGKAPNLLLYDASRSESGVPSRFSGSGSGTEFTLTISSLQPDDVATYYCQHYSIYSRWTFGQGTKVEIK
notes: IgG
B13: M2F01 (antibody, V domains shown)
VH: QVQLVQSGAEVKKPGASVKVSCKASEDTFTNYYMHWVRQAPGQGLEWMGIINPSGGSTDYAQKFQGRVTMTRDTSTSTVYMELSSLRSEDTAMYYCARQGRTAACDYWGQGTLVTVSS
VL: DIQMTQSPSSVSASVGDRVTITCRASQGIRSWLAWYQQKPGKAPKLLIYAASTLQSGVPSRFSGSGSGTDFTLTISSLQPEDFATYYCQQSNSFSLFTFGPGTRVDIK
notes: IgG
B14: M2B10 (antibody, V domains shown)
VH: QVQLVESGGGVVQPGRSLRLSCAASGFTFSNYPMHWVRQAPGKGLAWVALISYDGRTKYYADSVKGRFTISRDNSMNTVYLQMNSLRAEDTAVYYCAREGLEYLNYWGQGTLVTVSS
VL: EIVLTQSPGTLSLSPGERATLSCRASQSISSNSLAWYQQKPGQAPRLLSYGTSNRATGIPDRFSGSGSGTDFTLTISRLEPEDFAVYYCQQYGSSPLTFGPGTKVDIK
notes: IgG
B15: M3A07 (antibody, V domains shown)
VH: QVQLVQSGAEVQKPGASVKVSCKASGYTFTRHAIHWVRQAPGQRLEWIGWVHGGNENTKYSQKLQGRVTITRDTSASTAYMELNSLRYEDTAVYYCATAMPGAFNMWGQGTVVTVSS
VL: DIQMTQSPSTLSASVGDRVTITCRASQSISSWVAWYQQKPGKAPKLLIYKAFSLETGVPSRFSGSGSGTEFTLTISSLQPDDCATYYCQQYGSFSEFTFGQGTKLEIK
notes: IgG

Changes are numbered by the printed parent chain.

The target in the first assay is T1, Processed stabilized hMPV PreF trimer (115BV) (human metapneumovirus, strain B2).
T1 construct: also called Processed hMPV PreF trimer; processed PreF
Description: BLI, ratio to unprocessed PreF trimer.
For the molecule B1, the “processed/unprocessed PreF trimer binding ratio” value stood at 0.18.
As to B2, the “processed/unprocessed PreF trimer binding ratio” value is 0.51.
Regarding B3, the “processed/unprocessed PreF trimer binding ratio” value amounted to 0.54.
As for B4, the “processed/unprocessed PreF trimer binding ratio” value was determined as 1.18.
With B5, the “processed/unprocessed PreF trimer binding ratio” value was found to be 0.49.
For B6, the “processed/unprocessed PreF trimer binding ratio” value was 0.03.
As for B7, the “processed/unprocessed PreF trimer binding ratio” value was determined as 0.22.
Consider B8, for which the “processed/unprocessed PreF trimer binding ratio” value is 0.19.
Regarding B9, the “processed/unprocessed PreF trimer binding ratio” value turned out to be 0.29.
Take B10: the “processed/unprocessed PreF trimer binding ratio” value was determined as 0.3.
B11: the “processed/unprocessed PreF trimer binding ratio” value is 0.15.
On to B12, for which the “processed/unprocessed PreF trimer binding ratio” value was found to be 0.22.
Take B13: the “processed/unprocessed PreF trimer binding ratio” value turned out to be 0.22.
As for B14, the “processed/unprocessed PreF trimer binding ratio” value was determined as 0.13.
For the molecule B15, the “processed/unprocessed PreF trimer binding ratio” value was 0.17.

The next assay has as its target T2, hMPV PostF trimer (human metapneumovirus, strain B2).
T2 construct: also called MPV PostF (dPFv1)
Description: BLI, mAb on anti-human Fc sensor. (In general: BLI is a label-free optical method that tracks binding on a fibre tip over time.)
As to B1, the Octet binding response came out at 0.426 nm.
On the same count and under the same terms, the same measure for B2: 0.0702 nm; for B3: 0.0401 nm.
For the molecule B4, the Octet binding response was 0.449 nm.
B5 showed an Octet binding response of 0.0538 nm.
The same measure, in the same setting: with B6 the figure was -0.0435 nm; with B7, 0.0408 nm.
For the molecule B8, the Octet binding response was -0.0395 nm.
The molecule B9 displayed an Octet binding response of 0.477 nm.
With B10, the Octet binding response was -0.0402 nm.
B11 came in with an Octet binding response of 0.0143 nm.
In the case of B12, the Octet binding response was -0.0352 nm.
For B13, the Octet binding response was -0.0326 nm.
Take B14: the Octet binding response is -0.0646 nm.
B15: the Octet binding response is -0.022 nm.

For the next assay, the target named is T1, Processed stabilized hMPV PreF trimer …. Description: BLI, mAb on anti-human Fc sensor.
B1 returned an Octet binding response of 0.0489 nm.
Still for that read-out and setting: the same measure for B2: 0.199 nm; for B3: 0.228 nm; for B4: 0.447 nm.
Turning to B5, the Octet binding response stood at 0.162 nm.
Still for that read-out and setting: with B6 the figure was 0.0092 nm.
For B7, the Octet binding response is 0.0584 nm.
In the case of B8, the Octet binding response worked out at 0.0529 nm.
B9 returned an Octet binding response of 0.109 nm.
As for B10, the Octet binding response was 0.0795 nm.
Molecule B11 gave an Octet binding response of 0.0515 nm.
B12 yielded an Octet binding response of 0.052 nm.
Same read-out and setting: with B13 the figure was 0.0736 nm; with B14, 0.0278 nm; with B15, 0.0536 nm.

The target in a further assay is T3, Unprocessed hMPV PreF trimer (human metapneumovirus, strain B2).
T3 construct: also called Unprocessed hMPV WT PreF trimer; unprocessed hMPV PreF trimeric antigen
Description: BLI, mAb on anti-human Fc sensor.
Molecule B1 showed an Octet binding response of 0.273 nm.
B2 came in with an Octet binding response of 0.391 nm.
Turning to B3, the Octet binding response came to 0.426 nm.
For B4, the Octet binding response amounted to 0.378 nm.
In the case of B5, the Octet binding response was 0.332 nm.
Consider B6, for which the Octet binding response was 0.302 nm.
As to B7, the Octet binding response is 0.271 nm.
For B8, the Octet binding response came out at 0.281 nm.
Same read-out and setting: the same measure for B9: 0.369 nm; for B10: 0.261 nm; for B11: 0.342 nm.
The molecule B12 yielded an Octet binding response of 0.237 nm.
Consider B13, for which the Octet binding response worked out at 0.335 nm.
B14: the Octet binding response worked out at 0.209 nm.
Consider B15, for which the Octet binding response came to 0.324 nm.
